The data set is described as follows: soluble on expression in E. coli; label from the status in PepcDB or PDB records.
For “MSLLKVRLCPAERPEAMLIDAHQHFWLMKDRAGQWPPPSLAAIYRDFLPTDLSPLLTAAGVSGTVLVQTMETAADTDFMLELAENTDFIKGVVGWVDMKSAEVTAEIARRAKHPAFKGVRPMLQGMEDVAWIDDAALNAAVEALVKHGLVFDALVLPPNLPHLLSFASKHPELPVVIDHGAKPLIATGHYRDWRRNMAALAARPNVHCKLSGLLTERGEQRPEAVRPYAETILELFGGDRVIFGSDWPVLRLAGDFQGWLDFCRDIVPAKDHAAVFGGNAIRFYSLTDREGHHHHHH”, the “soluble on expression in E. coli” value is “not soluble”.

Regarding “MGSDKIHHHHHHMLKLYSFGPAANSMKPLLTVFEKGLDVEKHRLDPAKFEHHTDWFKAINPRGQVPALVDGDKVVTESTVICEYLEDEYPTEVALRPADSFGKAQMRIWTKWVDEYFCWCVSTIGWHRYVGNMVKSLSDAEFEEKVKAIPVIEQQVKWRRAREGFPQDMLDEEMRKIAYSVRKLDDHLADHEWLVPGQYTLADICNFAIANGMQFGFAELVNKQDTPHLVRWIEQINERPAVKQMFAQVELEKLGPRE”, the “soluble on expression in E. coli” value was “not soluble”.

Regarding “MGSDKIHHHHHHMTNENLCAGRNRYDGVSIDFFSDADLRAIDSATMDVFQNPGIQVSDAESRALFKEAGCDVNEKTMVVKIPEHVVRRAIMTAPSKITLYGREKQHTFTQQAGGKVHYTCFGTGVKMCKYEAPGVFKTVDSTEEDLANTARVCDWADNIDSYSLAVSARDWAGKGAQDVHETFTPLMNTSKHFFHIDPVGENVEYYWDILKAYYGGDEEQARSRPIFSELLCPTSPLKIGTNACQLILKSVNFGIPINVISMAMSGASCPVHLAGTLVTHNAEVLSGIVLAQLASPGAKVWYGSSTTAFDLKHGTAPVGSPELGLISAAVAKLGQYYDLPTYVAST”, the “soluble on expression in E. coli” value was “not soluble”.

As to “MENILEVNQIKKYYKIKTGLLQKTQYVKAVDDVSFSIKKGQTFGLVGESGCGKSTLGKVIIRLEDATSGSIIVNGEDITRLQGKKLRKSRQQYQMIFQDPYASLNPMQMVGDIISEPILNYKKLPKEEIKKEVLYLLKCVGLSEDAYYKYAHEFSGGQRQRVGIARALALRPSLIVADEPVSALDVSVQSQVLNLLKDLQEQFNLSYLFIAHDLSVVKHISDVIGVMYLGHIVEIASDKEIYENPKHPYTKALISSIPQIDKHNNNRIILKGELPSPSNPPQGCPFHTRCPIAQDMCKKSMPELKDIGNEHQVACFYVDKVGDLND”, the “soluble on expression in E. coli” value was “not soluble”.

Regarding “MNQVEMTEFPVGKPQEALYGVASTPDGALWFTLAKGNAIGRLSPDGAVSRFPLPHTDGQPTTITCGPDGRPWFTLSSANAIGRLAPDGALRMFELPRPASRPFGIAGGHDGCLWFAEMAGDRIGRITIDGDIEEYDLPVKGGYPSCMAAGRDGLMWFTLNQAGAVGSISATAAPRIFPLGAADAAPVGIASDAQGALWIAQAGNGAIVRFDAGGRITEFPLHSRAARPHAIAADAAGNLWFTEWGANRIGRISEAGDLAGYELAAPGSEPHGIAIDPHGCVWAALETGRLVRLQASPRDLEHHHHHH”, the “soluble on expression in E. coli” value is “soluble”.

Turning to “MIHGIGVDLIEIDRIQALYSKQPKLVERILTKNEQHKFNNFTHEQRKIEFLAGRFATKEAFSKALGTGLGKHVAFNDIDCYNDELGKPKIDYEGFIVHVSISHTEHYAMSQVVLEKSAF”, the “soluble on expression in E. coli” value is reported as “not soluble”.

“MPKRRLQTTLSEEAFRIIEKFKPDYGGINEVIEAALKLLNREDRNLSEDDILLIRLIRDLDFTGCGRSQYMHLICGDIEKAVKESMMETAVEWFLKKPFAEIELEEFLETVKRGWKVLNRVDYVEITKGDGWIQIFCEHTMRRREVSEFLAMHILNIYEKYYKGEWDVVKSISTNGFTLKFYRRV”: the “soluble on expression in E. coli” value is recorded as “not soluble”.

As for “MGSSHHHHHHSSGLVPRGSSGHVGLRNLGNTCFLNAVLQCLSSTRPLRDFCLRRDFRQEVPGGGRAQELTEAFADVIGALWHPDSCEAVNPTRFRAVFQKYVPSFSGYSQQDAQEFLKLLMERLHLEINRRGRRAPPILANGPVPSPPRRGGALLEEPELSDDDRANLMWKRYLEREDSKIVDLFVGQLKSCLKCQACGYRSTTFEVFCDLSLPIPKKGFAGGKVSLRDCFNLFTKEEELESENAPVCDRCRQKTRSTKKLTVQRFPRILVLHLNRFSASRGSIKKSSVGVDFPLQRLSLGDFASDKAGSPVYQLYALCNHSGSVHYGHYTALCRCQTGWHVYNDSRVSPVSENQVASSEGYVLFYQLMQEPP”, the “soluble on expression in E. coli” value is “soluble”.

On to “MRADGRSSCELRPVHIHPHYMKHAEGSVLIEIGDTKVICTATVEEKVPSFMRGGGKGWITAEYGMLPRATEQRNVREASKGKVSGRTMEIQRLIGRALRSVVDLEQLGERTIWIDCDVIQADGGTRTASITGAYVALVLALAKLVEEGKLEALPIRDFLAATSVGIDPEHGVILDLDYNEDARAKVDMNVVMTGAGQFVEIQGTGEEAVFSRAELDELLEAAQIGIEQLIAVQRRALGEWAARIGEKKEAAEEDTE”, for which the “soluble on expression in E. coli” value is given as “not soluble”.

Turning to “MSLKIHCLKLKNKELNKEVAFYLTSIIRQALKNTEYKDQISSTVLPDIKIKLPIDSRGTPDWNYMERYRDREGHHHHHH”, the “soluble on expression in E. coli” value was “soluble”.

On to “ISFVIAAPEAIAAAATDLASIGSTIGAANAAAAANTTAVLAAGADQVSVAIAAAFGAHGQAYQALSAQAATFHIQFVQALTAGAGSYAAAEAASAASITSPLLDAINAPFLAALGRPLIGNGADGAPGTGAAGGAGGLLFGNGGAGGSGAPGGAGGLLFGNGGAGGPGASGGALG”, for which the “soluble on expression in E. coli” value was “not soluble”.

“MALLPAVRRYGRLTRATGLVLEATGLQLPLGATCIIERQDGPETKEVESEVVGFNGQRLFLMPLEEVEGILPGARVYARNGHGDGLQSGKQLPLGPALLGRVLDGGGKPLDGLPAPDTLETGALITPPFNPLQRTPIEHVLDTGVRAINALLTVGRGQRMGLFAGSGVGKSVLLGMMARYTRADVIVVGLIGERGREVKDFIENILGPDGRARSVVIAAPADVSPLLRMQGAAYATRIAEDFRDRGQHVLLIMDSLTRYAMAQREIALAIGEPPATKGYPPSVFAKLPALVERAGNGIHGGGSITAFYTVLTEGDDQQDPIADSARAILDGHIVLSRRLAEAGHYPAIDIEASISRAMTALITEQHYARVRLFKQLLSSFQRNRDLVSVGAYAKGSDPMLDKAITLWPQLEAFLQQGIFERADWEDSLQALDLIFPTV”: the “soluble on expression in E. coli” value is “soluble”.

As for “MSLGITGPTFDLTAQPGRANQPDGASVYSWGYGCNPRTVPGFLPSVNPLAGQNCPGMQLPGPTLIVHQGDVVTVTLTNNLPPAAGNTSILFPGFQVCAGTLDPNTGACSGTPTGVQGLLTREAQTGKTVTYTFIATTPGTHAYYSGTQGDLQVEMGLYGALIVLPTASGSVAVPAGCRAVSSLLPDGQPDYRNAAAAYNHSMACYDREYLFQFSEIDPAIHVQAEQQAGLPCAQPAGCMIVRTEPYHPAYFMVNGRSMPDDMDTNYAPQYPSQPYNGNPHMHPGELVLLRIIGTGRWQHPFHEHGNHVRVLARDGNLLLSQGDPSKVAGPLLFTTTTTPGLAMDGIFYWTGRGLNWDVYGHKPGDGSVCIPDANGYYTQDPTAPNYYEWCADHDKPLEAHPFGDVNSGGPVTLPDPNIFSNGAWYGGSPYLGPDATIRAVGATGTTPPTGTIANPPTTEAGFAFMWHSHNEREITTNNIFPGGMMMMMLVDPQAFVINEANEGHHHHHH”, the “soluble on expression in E. coli” value is listed as “not soluble”.

Turning to “GSSPNLRYPIADVSGGIGMSPNYRFRQSMWIGIVSYSGSGLNWRVQVNSDIFIVNDYIHICLPAFDGFSIADGGDLSLNFVTGLLPPLLTGDTEPAFHNDVVTYGAQTVAIGLSSGGTPQYMSKNLWVEQWQDGVLRLRVEGGGSITHSNSKWPAMTVSYPRSFT”, the “soluble on expression in E. coli” value is “soluble”.

For the sequence “MSLASDPFEAPIPGLHACIDPIAVAHNLEVLRQRLGVGVDGPRIWATVKADAYGHGLHNVLPGLRAADGIAVRHLHEAHQCRRVGWSGPIMVYAGLTHEREAALLTLQQLHLVITDMTQLEWLPGKPLYSCAPWIWLRYIGATRLGGLDASEYRRAYARCRELQQHGALRGVGHLNHYANAASVGDLEREHADFEACIRGLPGPVSTCNSAAACVLPTMAARTDWVRPGLALYGVSPIPGREGHHHHHH”, the “soluble on expression in E. coli” value is listed as “not soluble”.

For “MSILEQVQPIETMLPERYYTMSTEDMEKRVREIKEKMGKMLFIPGHHYQKDEVVQFSDAVGDSLQLAQVAASNKDAKYIVFCGVHFMAETADMLTTDDQVVILPDMRAGCSMADMADIEQTERAWKELTKLFGDTMIPLTYVNSTAAIKAFCGRNGGATVTSSNAKQMVSWAFTQKERLVFLPDQHLGRNTAYDLGIPLDKMAVWDPHTDSLEYDGDIEEIQVILWKGHCSVHQNFTVKNIESVRKNHSDMNIIVHPECCYEVVAASDYAGSTKYIIDMIESAPPGSKWAIGTEMNLVNRIIQQHPDKEIVSLNPFMCPCLTMNRIDLPHLLWALETIERGEEINVISVDKQVTAEAVLALNRMLERV”, the “soluble on expression in E. coli” value is listed as “not soluble”.

In the case of “MAHHHHHHMADYGWTRGKLPKFRARSPFHRQQIARRMVTEMIRKDYCIVGGARAPALRILADHVVELAKAGDTDSRQQLAYFLHDPLMVDKAFDEYPRRFKDMNAKYAMMTRLKSRRRTDAVAMYFVEYKNRDMSDNHKGEDYSAGPERFFLPPRIVETEKGIQRPPHMQMAFDRWASKFKTEEFHHWWRLRHAKLRYWGVRNVPHPSDVDPLWTEKEEEEWHNEMLANTGEYEDLDLDDESYTAAGEGGEPSPAGDGPQPQRVG”, the “soluble on expression in E. coli” value is listed as “not soluble”.

For “MLRRVNEQGPVQGRAQAPVKPDDSVPPELARARVWILTDGKAGDENQCIGIAEALGLAYETRRIPDGRPLTWMAPWGPIDPRDAPGRAGGLLQGPLPHLLIASGRRAVPYLRAVRRASDEKTFTAFLKDPRTGHDTADFIWVPDYDDLRGPNVFTTLTAPHPVSRARLDAARTTPDPRLARLPWPRIAVLIGGDSRHLRYRKADMQRLVRDLTKLAEGGCSLMLTVSRRTPPDLRKALEDLVKDKGGFFWDGSGENPYVGMLAIADHIVVTSDSANMVGEAASTGVPLLLFDLPRTYIRHRRMFAGLAMAGALKPFIGRLEALRYAPIDATPEIAAALAEGYQRHRARLAGEVAAVPRPAEPTSAPRGPFLEHHHHHH”, the “soluble on expression in E. coli” value was “not soluble”.

For the sequence “MNSTSIYILVALHPIITLTNMPNTAMEATELLKEIQKHDSQQAFRSLYDMYYDRFFRIAFYYLQRDEWAQEVILDVFTTLWNHRKSQLIPDDFNKYSYILIRNAALNYLEKEQRREASPLENMPEISSSNLSPEEQMMNEELFNIYENSLNELPERCRTIFIKVREEKQSYASVAEELNISPKTVDAQLQKAVTRLKEKINNYFRNRR”, the “soluble on expression in E. coli” value was “not soluble”.

In the case of “MKEEIIIAGFGGQGVLSMGKILAYSGLMEGKEVTWMPAYGPEQRGGTANVTVIVSDDKISSPILSKYDTAIILNQPSLEKFESRVKPGGILIYDGYGIINPPTRKDIKVYRIDAMDAANEMNNAKAFNMIVLGGLLKLRPIVTLENVVKGLKKTLPERHHHLIPMNEEAIKKGMELIRE”, the “soluble on expression in E. coli” value was “not soluble”.

For “MAEKKLEENPYDLDAWSILIREAQNQPIDKARKTYERLVAQFPSSGRFWKLYIEAEIKAKNYDKVEKLFQRCLMKVLHIDLWKCYLSYVRETKGKLPSYKEKMAQAYDFALDKIGMEIMSYQIWVDYINFLKGVEAVGSYAENQRITAVRRVYQRGCVNPMINIEQLWRDYNKYEEGINIHLAKKMIEDRSRDYMNARRVAKEYETVMKGLDRNAPSVPPQNTPQEAQQVDMWKKYIQWEKSNPLRTEDQTLITKRVMFAYEQCLLVLGHHPDIWYEAAQYLEQSSKLLAEKGDMNNAKLFSDEAANIYERAISTLLKKNMLLYFAYADYEESRMKYEKVHSIYNRLLAIEDIDPTLVYIQYMKFARRAEGIKSGRMIFKKAREDARTRHHVYVTAALMEYYCSKDKSVAFKIFELGLKKYGDIPEYVLAYIDYLSHLNEDNNTRVLFERVLTSGSLPPEKSGEIWARFLAFESNIGDLASILKVEKRRFTAFREEYEGKETALLVDRYKFMDLYPCSASELKALGYKDV”, the “soluble on expression in E. coli” value is “soluble”.

The values above are taken from the DeepSol protein solubility set.
